Results: patent publication US20210130454A1 (BLUEFIN BIOMEDICINE, published 2021)
Each block holds one binder with its values, some of them ahead of it.

How the values were obtained:
[1] = target: T1, human SEZ6L on cells (293-SEZ6L) (human, UniProt Q9BYH1 29-1024); experiment: flow cytometry on live 293-SEZ6L cells, Alexa Fluor 488 anti-human IgG secondary [continued), panel F]
T1 construct: whole, on cells; also called Seizure 6-like Protein
T1 sequence (looked up): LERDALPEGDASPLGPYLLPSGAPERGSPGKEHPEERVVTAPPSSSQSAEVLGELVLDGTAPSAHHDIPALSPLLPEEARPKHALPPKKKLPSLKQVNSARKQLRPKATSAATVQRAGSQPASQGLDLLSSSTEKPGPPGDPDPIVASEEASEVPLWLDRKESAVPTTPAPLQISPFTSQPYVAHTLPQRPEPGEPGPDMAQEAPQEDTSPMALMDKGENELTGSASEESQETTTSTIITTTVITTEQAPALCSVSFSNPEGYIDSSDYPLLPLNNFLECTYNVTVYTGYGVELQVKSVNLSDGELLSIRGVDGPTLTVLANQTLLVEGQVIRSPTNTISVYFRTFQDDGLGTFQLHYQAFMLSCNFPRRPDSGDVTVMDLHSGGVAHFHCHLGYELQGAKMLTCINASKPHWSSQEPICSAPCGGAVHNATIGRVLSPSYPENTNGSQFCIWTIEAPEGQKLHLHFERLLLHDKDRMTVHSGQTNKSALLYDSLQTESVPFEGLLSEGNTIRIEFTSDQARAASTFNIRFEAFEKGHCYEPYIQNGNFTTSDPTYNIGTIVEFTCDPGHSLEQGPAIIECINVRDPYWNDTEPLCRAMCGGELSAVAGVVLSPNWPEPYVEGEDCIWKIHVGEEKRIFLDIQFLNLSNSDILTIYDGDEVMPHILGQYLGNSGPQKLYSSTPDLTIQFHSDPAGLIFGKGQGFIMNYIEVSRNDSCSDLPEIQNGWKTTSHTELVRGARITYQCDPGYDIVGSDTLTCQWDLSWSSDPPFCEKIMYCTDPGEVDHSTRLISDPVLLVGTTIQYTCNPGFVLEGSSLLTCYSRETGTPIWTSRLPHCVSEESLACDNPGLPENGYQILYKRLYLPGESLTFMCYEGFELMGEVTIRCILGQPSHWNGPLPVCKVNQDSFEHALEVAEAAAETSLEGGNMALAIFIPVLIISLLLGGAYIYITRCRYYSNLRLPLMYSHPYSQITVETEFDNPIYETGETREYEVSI

[2] = target: T2, human SEZ6 on cells (293-SEZ6) (human, UniProt Q53EL9 20-994); experiment: flow cytometry on live 293-SEZ6 cells, Alexa Fluor 488 anti-human IgG secondary [continued), panel F]
T2 construct: whole, on cells; also called Seizure Protein 6 Homolog
T2 sequence (looked up): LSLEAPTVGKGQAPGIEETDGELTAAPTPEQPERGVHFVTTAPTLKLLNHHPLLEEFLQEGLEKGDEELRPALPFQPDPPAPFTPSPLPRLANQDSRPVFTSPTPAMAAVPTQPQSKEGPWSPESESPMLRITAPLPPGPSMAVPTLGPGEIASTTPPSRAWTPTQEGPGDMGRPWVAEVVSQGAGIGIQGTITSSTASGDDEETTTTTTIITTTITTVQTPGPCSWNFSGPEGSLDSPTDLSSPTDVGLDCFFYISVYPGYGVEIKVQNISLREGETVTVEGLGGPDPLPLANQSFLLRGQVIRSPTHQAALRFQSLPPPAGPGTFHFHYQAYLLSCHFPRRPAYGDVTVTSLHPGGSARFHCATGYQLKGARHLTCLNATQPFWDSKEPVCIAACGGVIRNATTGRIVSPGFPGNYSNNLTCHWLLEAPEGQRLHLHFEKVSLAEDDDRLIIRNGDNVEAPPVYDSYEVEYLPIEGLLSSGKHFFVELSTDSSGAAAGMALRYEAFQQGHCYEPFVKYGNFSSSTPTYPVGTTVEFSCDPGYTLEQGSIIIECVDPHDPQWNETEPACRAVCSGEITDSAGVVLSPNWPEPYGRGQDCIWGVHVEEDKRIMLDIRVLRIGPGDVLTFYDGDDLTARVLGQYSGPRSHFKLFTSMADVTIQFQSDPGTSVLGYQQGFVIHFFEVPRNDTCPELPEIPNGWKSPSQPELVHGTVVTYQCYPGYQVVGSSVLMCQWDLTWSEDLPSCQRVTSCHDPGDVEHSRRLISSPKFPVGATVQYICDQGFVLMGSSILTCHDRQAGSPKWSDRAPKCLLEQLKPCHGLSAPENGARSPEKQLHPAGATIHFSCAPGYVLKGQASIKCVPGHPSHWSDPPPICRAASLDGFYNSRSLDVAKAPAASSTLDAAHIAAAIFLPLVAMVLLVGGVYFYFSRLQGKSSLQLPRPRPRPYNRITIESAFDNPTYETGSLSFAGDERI

[3] = target: T3, human SEZ6L2 on cells (293-SEZ6L2, HEK 293 cells transfected with human SEZ6L2, and SEZ6L2-expressing tumor … (human, UniProt Q6UXD5 28-910)); experiment: flow cytometry on live 293-SEZ6L2 cells, primary antibody 1 ug/ml, Alexa Fluor 488 anti-human IgG secondary [continued), panel F]
T3 construct: Tumor cell lines express the endogenous protein; also called hSEZ6L2

[4] = target: T3, human SEZ6L2 on cells (293-SEZ6L2, HEK …); experiment: immunofluorescence and flow cytometry on HEK 293 cells transfected with human SEZ6L2 against untransfected cells
[5] = target: T1, human SEZ6L on cells (293-SEZ6L); experiment: flow cytometry on live 293-SEZ6L cells, Alexa Fluor 488 anti-human IgG secondary [continued), panel I]
[6] = target: T2, human SEZ6 on cells (293-SEZ6); experiment: flow cytometry on live 293-SEZ6 cells, Alexa Fluor 488 anti-human IgG secondary [continued), panel I]
[7] = target: T4, recombinant human SEZ6L2 (extracellular portion of human SEZ6L2 fused to six C-terminal histidine-tag repeats) (human, UniProt Q6UXD5 28-844); experiment: BLI (ForteBio Octet Red96), antibody on Protein A biosensors, recombinant target protein in solution
T4 construct: also called SEZ6L2-his; recombinant SEZ6L2

[8] = target: T5, recombinant cynomolgus monkey SEZ6L2 (cynomolgus monkey, UniProt G7Q0V6 28-844); experiment: as above
T5 construct: The construct is not described; also called cynomolgus monkey SEZL2

[9] = target: T3, human SEZ6L2 on cells (293-SEZ6L2, HEK …); experiment: flow cytometry on live 293-SEZ6L2 cells, primary antibody 1 ug/ml, Alexa Fluor 488 anti-human IgG secondary [continued), panel H]
[10] = target: T1, human SEZ6L on cells (293-SEZ6L); experiment: flow cytometry on live 293-SEZ6L cells, Alexa Fluor 488 anti-human IgG secondary [continued), panel H]
[11] = target: T2, human SEZ6 on cells (293-SEZ6); experiment: flow cytometry on live 293-SEZ6 cells, Alexa Fluor 488 anti-human IgG secondary [continued), panel H]
[12] = target: T2, human SEZ6 on cells (293-SEZ6); experiment: flow cytometry on live 293-SEZ6 cells, Alexa Fluor 488 anti-human IgG secondary [panel A]
[13] = target: T1, human SEZ6L on cells (293-SEZ6L); experiment: flow cytometry on live 293-SEZ6L cells, Alexa Fluor 488 anti-human IgG secondary [panel A]
[14] = target: T2, human SEZ6 on cells (293-SEZ6); experiment: flow cytometry on live 293-SEZ6 cells, Alexa Fluor 488 anti-human IgG secondary [continued), panel G]
[15] = target: T1, human SEZ6L on cells (293-SEZ6L); experiment: flow cytometry on live 293-SEZ6L cells, Alexa Fluor 488 anti-human IgG secondary [continued), panel G]
[16] = target: T3, human SEZ6L2 on cells (293-SEZ6L2, HEK …); experiment: flow cytometry on live 293-SEZ6L2 cells, primary antibody 1 ug/ml, Alexa Fluor 488 anti-human IgG secondary [continued), panel G]

T3 sequence (Q6UXD5 28-910): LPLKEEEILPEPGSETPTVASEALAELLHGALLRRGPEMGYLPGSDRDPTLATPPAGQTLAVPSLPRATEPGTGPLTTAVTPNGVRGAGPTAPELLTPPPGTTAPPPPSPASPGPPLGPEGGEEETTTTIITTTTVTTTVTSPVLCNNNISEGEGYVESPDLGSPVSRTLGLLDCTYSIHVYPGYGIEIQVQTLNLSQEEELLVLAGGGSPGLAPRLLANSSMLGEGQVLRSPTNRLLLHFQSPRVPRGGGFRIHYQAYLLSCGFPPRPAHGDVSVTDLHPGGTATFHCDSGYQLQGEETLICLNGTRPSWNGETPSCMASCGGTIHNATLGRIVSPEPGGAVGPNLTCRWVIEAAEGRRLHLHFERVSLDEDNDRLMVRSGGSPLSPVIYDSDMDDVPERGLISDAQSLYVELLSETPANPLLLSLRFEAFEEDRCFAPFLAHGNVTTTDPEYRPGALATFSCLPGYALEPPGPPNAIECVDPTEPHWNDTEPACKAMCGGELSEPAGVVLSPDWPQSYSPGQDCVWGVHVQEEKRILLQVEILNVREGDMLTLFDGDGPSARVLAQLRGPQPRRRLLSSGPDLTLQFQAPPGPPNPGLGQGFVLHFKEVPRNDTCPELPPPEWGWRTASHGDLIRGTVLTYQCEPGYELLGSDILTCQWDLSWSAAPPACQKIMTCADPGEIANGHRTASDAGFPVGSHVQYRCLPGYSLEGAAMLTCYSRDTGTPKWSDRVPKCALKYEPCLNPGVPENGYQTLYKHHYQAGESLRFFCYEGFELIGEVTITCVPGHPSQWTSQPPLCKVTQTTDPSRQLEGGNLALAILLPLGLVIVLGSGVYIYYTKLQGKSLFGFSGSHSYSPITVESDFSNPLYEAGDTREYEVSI
T4 sequence (Q6UXD5 other isoform, or with tags, fused parts or gaps): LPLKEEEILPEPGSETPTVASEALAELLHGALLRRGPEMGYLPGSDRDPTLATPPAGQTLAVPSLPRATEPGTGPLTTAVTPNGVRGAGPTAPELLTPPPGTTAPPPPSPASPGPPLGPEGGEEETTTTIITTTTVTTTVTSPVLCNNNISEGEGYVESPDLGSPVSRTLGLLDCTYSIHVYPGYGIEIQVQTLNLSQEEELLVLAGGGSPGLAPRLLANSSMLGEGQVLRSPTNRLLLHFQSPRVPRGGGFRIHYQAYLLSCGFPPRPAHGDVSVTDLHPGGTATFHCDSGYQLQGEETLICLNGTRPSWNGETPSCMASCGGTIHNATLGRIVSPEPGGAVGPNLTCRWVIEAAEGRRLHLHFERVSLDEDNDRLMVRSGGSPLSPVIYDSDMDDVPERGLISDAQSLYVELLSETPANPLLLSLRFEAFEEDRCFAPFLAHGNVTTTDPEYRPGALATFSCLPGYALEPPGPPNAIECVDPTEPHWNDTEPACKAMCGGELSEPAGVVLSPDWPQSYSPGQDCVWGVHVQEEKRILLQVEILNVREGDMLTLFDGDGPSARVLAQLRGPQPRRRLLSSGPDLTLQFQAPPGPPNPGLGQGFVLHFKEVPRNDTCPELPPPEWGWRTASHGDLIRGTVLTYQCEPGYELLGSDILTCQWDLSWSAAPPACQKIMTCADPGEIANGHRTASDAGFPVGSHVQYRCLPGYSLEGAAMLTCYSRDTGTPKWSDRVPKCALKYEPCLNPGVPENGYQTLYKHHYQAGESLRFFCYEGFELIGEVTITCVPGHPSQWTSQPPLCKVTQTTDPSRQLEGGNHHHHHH

binding result [1]: no binding (tested: 1 ug/ml)
binding result [2]: no binding (tested: 1 ug/ml)
binding result [3]: binds
B1: human anti-SEZ6L2 antibody 3B1 (antibody, V domains shown)
VH: QVQLVESGGGVVQPGRSLRLTCVVSGFAFSSYGMHWVRQAPGKGLEWVAVIWYDGSNKYYADSVKGRFTISRDNSKNTLYLQMNSLRAEDTAVYYCASLDYYGSGSRFDPWGQGTLVTVSS
VL: not shown
notes: Fully human antibody from H2L2 mice

binding result [4]: binds
B2: murine anti-SEZ6L2 antibody mu3E2 (antibody, V domains shown)
VH: EVLLVESGGRLVQPKGSLKLSCAASGFSFNTITMNWVRQAPGKGLEWVARIRSKSNNYATYYADAVKDRFTISRDDSQSMLYLQMNNLKTEDTAMYFCVRGIFSGYVYAMDYWGQGTTLTVSS
VL: DVVMTQSPLSLPVSVGDQASISCRSSQSIVHSNGNTYLEWYLQKPGQSPKVLIYKVSNRFSGVPDRFSGSGSGTDFTLKISRVEAEDLGVYYCFQGSHVPYTFGGGTKLEIK
notes: Mouse hybridoma antibody

binding result [4]: binds
B3: murine anti-SEZ6L2 antibody mu2E4 (antibody, V domains shown)
VH: EVKLVESGGVLVKPGGSLKLSCAASGFTFSKYAMSWVRQTPEKRLEWVATISSGGSYTYYPDSVKGRFTISRDNARNTLYLQMSSLRSEDTAIYYCTREGGYDEGYAMDYWGQGTTLTVS
VL: DVVMTQTPLSLPVSLGDQASISCRSSQSLVHSYGNTYLHWYLQKPGQSPKLLIYKVSNRFSGVPDRFSGSGSGTDFTLKISRVEAEDLGVYFCSQSTHFRTFGGGTKLEIK
notes: Mouse hybridoma antibody

binding result [5]: no binding (tested: 1 ug/ml)
binding result [6]: no binding (tested: 1 ug/ml)
Kd [7]: 7 nM
Kd [8]: 12 nM
B4: humanized anti-SEZ6L2 antibody 2E4 (antibody, human IgG1, V domains shown)
VH: EVKLVESGGVLVKPGGSLRLSCAASGFTFSKYAMSWVRQAPGKGLEWVSTISSGGSYTYYPDSVKGRFTISRDNARNSLYLQMNSLRAEDTAIYYCTREGGYDEGYAMDYWGQGTTVTVSS
VL: DIVMTQSPDSLAVSLGERATINCRSSQSLVHSYGNTYLHWYQQKPGQPPKLLIYKVSNRFSGVPDRFSGSGSGTDFTLTISSLQAEDVAVYFCSQSTHFRTFGGGTKVEIKR
notes: also called 2E4:4D2

binding result [9]: binds
binding result [10]: no binding (tested: 1 ug/ml)
binding result [11]: no binding (tested: 1 ug/ml)
B5: human anti-SEZ6L2 antibody 3B6 (antibody, V domains shown)
VH: QVQLVQSGAEVKKPGASVKVSCKASGYTFTAYYMHWVRQAPGQGLEWMGWINPNSGGTNYAQKFQGRVTMTRDTSIDTAYLDLSRLRSDDTAVYYCAKDSGYDWYFDIWGRGTLVTVSS
VL: EIVLTQSPATLSLSPGERATLSCRASQNISSYLAWYQQKPGQAPRLLIYDASNRATGIPARFSGSGSGTDFTLTISSLEPEDFAVFYCQQHSNWPPLTFGGGTKVEIKR
notes: as for B1

binding result [12]: no binding (tested: 1 ug/ml)
Kd [7]: 1 nM
Kd [8]: 1 nM
binding result [13]: no binding (tested: 1 ug/ml)
B6: human anti-SEZ6L2 antibody 1A1 (antibody, V domains shown)
VH: QVQLVQSGAEVKKPGASVKVSCKASGYTFTGYYMFWVRQAPGQGLEWLGWINPNSGGTDYAQKFQGRVTMTRDTSISTAYMELSRLRSDDTAVYYCARDSGYDWFFDYWGQGTLVTVSS
VL: not shown
notes: Fully human antibody from H2L2 mice, expressed recombinantly; it was captured on Protein A and detected with anti-human IgG

binding result [14]: no binding (tested: 1 ug/ml)
binding result [15]: no binding (tested: 1 ug/ml)
binding result [16]: binds
B7: human anti-SEZ6L2 antibody 3B3 (antibody, V domains shown)
VH: EVQLVESGGGLVQPGGSLRLSCAASGFTFSSYWMSWVRQAPGKGLEWVANIKQDGSEKYYVDSVKGRFTISRDNAKNSLYLQMNSLRAEDTAVYYCARGGGSYAFDYWGQGTLVTVSS
VL: not shown
notes: as for B1
